Assay results taken from patent US20220106400A1.

Experiments:
[1] = biological target: hCD64 (FcgRI) (human) (UniProt P12314); assay: told in the description as a result of the Examples; method not given
[2] = biological target: human GITR on activated human CD4 T cells (human) (UniProt Q9Y5U5); assay: FACS binding to anti-CD3/CD28-activated human CD4 T cells
[3] = biological target: hCD64 (FcgRI) (human) (UniProt P12314); assay: FcR binding, Example 16

hCD64 (FcgRI) (human), sequence (P12314 16-288 limits assumed): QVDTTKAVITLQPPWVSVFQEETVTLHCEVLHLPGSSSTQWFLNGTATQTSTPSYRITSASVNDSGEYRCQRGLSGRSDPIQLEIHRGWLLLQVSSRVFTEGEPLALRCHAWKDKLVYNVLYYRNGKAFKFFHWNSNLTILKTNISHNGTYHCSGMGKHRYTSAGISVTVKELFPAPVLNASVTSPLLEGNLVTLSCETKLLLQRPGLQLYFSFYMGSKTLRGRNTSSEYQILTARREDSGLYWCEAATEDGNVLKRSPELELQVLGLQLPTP
human GITR on activated human CD4 T cells (human), sequence (Q9Y5U5 26-241): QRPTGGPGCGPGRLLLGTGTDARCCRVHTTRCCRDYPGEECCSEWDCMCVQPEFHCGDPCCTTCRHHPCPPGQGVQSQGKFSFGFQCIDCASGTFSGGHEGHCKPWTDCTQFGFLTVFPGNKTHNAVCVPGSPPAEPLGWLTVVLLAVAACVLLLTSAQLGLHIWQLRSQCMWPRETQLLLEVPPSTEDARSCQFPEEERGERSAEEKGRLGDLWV

| Substance | EC50 [2] | also measured |
| --- | --- | --- |
| antibody with IgG1 P238K (Example 13) |  | fold reduction of binding relative to wildtype IgG1 [1]: 100 fold |
| unrelated hIgG2 | 0.00673 µM |  |
| antibody with IgG1f-L235E-P238K heavy chain constant domain (Example 16) |  | fold reduction of CD64 binding against P238K alone [3]: 1000 fold |
| unrelated hIgG1 | 0.132 µM |  |
